Patent US20120058906A1

What was measured:
[1] = biological target: rHuman ErbB2/Fc Chimera, CF (R&D Systems Cat#1129-ER) (human) (UniProt P04626); assay: ECL (MSD multi-spot), Fab 340 nM; blank 554
[2] = biological target: rHuman IGF-1 sR (IGF-1 sR), CF (R&D Systems Cat#391-GR) (human) (UniProt P08069); assay: ECL (MSD multi-spot), Fab 340 nM; blank 554
[3] = biological target: rHuman P-Cadherin/Fc Chimera, CF (R&D Systems Cat#861-PC) (human) (UniProt P22223); assay: ECL (MSD multi-spot), Fab 340 nM; blank 554
[4] = biological target: rHuman Notch-1/Fc Chimera, CF (R&D Systems Cat#3647-TK) (human) (UniProt P46531); assay: ECL (MSD multi-spot), Fab 340 nM; blank 554
[5] = biological target: rHuman HGF R/c-MET/Fc Chimera, CF (R&D Systems Cat#358-MT/CF) (human) (UniProt P08581); assay: ECL (MSD multi-spot), Fab 340 nM; blank 554
[6] = biological target: rHuman EGF R/Fc Chimera, CF (R&D Systems Cat#344-ER) (human) (UniProt P00533); assay: ECL (MSD multi-spot), Fab 340 nM; blank 554
[7] = biological target: rHuman ErbB2/Fc Chimera, CF (R&D Systems Cat#1129-ER) (human) (UniProt P04626); assay: ECL (MSD multi-spot), Fab 85.0 nM; blank 292
[8] = biological target: rHuman IGF-1 sR (IGF-1 sR), CF (R&D Systems Cat#391-GR) (human) (UniProt P08069); assay: ECL (MSD multi-spot), Fab 85.0 nM; blank 292
[9] = biological target: rHuman P-Cadherin/Fc Chimera, CF (R&D Systems Cat#861-PC) (human) (UniProt P22223); assay: ECL (MSD multi-spot), Fab 85.0 nM; blank 292
[10] = biological target: rHuman Notch-1/Fc Chimera, CF (R&D Systems Cat#3647-TK) (human) (UniProt P46531); assay: ECL (MSD multi-spot), Fab 85.0 nM; blank 292
[11] = biological target: rHuman Erythropoietin R/Fc Chimera, CF (R&D Systems Cat#963-ER) (human) (UniProt P19235); assay: ECL (MSD multi-spot), Fab 85.0 nM; blank 292
[12] = biological target: rHuman CD44/Fc Chimera, CF (R&D Systems Cat#3660-CD) (human) (UniProt P16070); assay: ECL (MSD multi-spot), Fab 85.0 nM; blank 292
[13] = biological target: rHuman HGF R/c-MET/Fc Chimera, CF (R&D Systems Cat#358-MT/CF) (human) (UniProt P08581); assay: ECL (MSD multi-spot), Fab 85.0 nM; blank 292
[14] = biological target: rHuman EGF R/Fc Chimera, CF (R&D Systems Cat#344-ER) (human) (UniProt P00533); assay: ECL (MSD multi-spot), Fab 85.0 nM; blank 292
[15] = biological target: rHuman ErbB2/Fc Chimera, CF (R&D Systems Cat#1129-ER) (human) (UniProt P04626); assay: ECL (MSD multi-spot) screen, antigen spotted on plate, Fab at 0.34 uM; blank spot 356
[16] = biological target: rHuman IGF-1 sR, CF (R&D Systems Cat#391-GR) (human) (UniProt P08069); assay: as above
[17] = biological target: rHuman P-Cadherin/Fc Chimera, CF (R&D Systems Cat#861-PC) (human) (UniProt P22223); assay: as above
[18] = biological target: rHuman Notch-1/Fc Chimera, CF (R&D Systems Cat#3647-TK) (human) (UniProt P46531); assay: as above
[19] = biological target: rHuman Erythropoietin R/Fc Chimera, CF (R&D Systems Cat#963-ER) (human) (UniProt P19235); assay: as above
[20] = biological target: rHuman HGF R/c-MET/Fc Chimera, CF (R&D Systems Cat#358-MT/CF) (human) (UniProt P08581); assay: as above
[21] = biological target: rHuman ErbB2/Fc Chimera, CF (R&D Systems Cat#1129-ER) (human) (UniProt P04626); assay: ECL (MSD multi-spot), Fab […]; blank 162
[22] = biological target: rHuman IGF-1 sR (IGF-1 sR), CF (R&D Systems Cat#391-GR) (human) (UniProt P08069); assay: ECL (MSD multi-spot), Fab […]; blank 162
[23] = biological target: rHuman P-Cadherin/Fc Chimera, CF (R&D Systems Cat#861-PC) (human) (UniProt P22223); assay: ECL (MSD multi-spot), Fab […]; blank 162
[24] = biological target: rHuman Notch-1/Fc Chimera, CF (R&D Systems Cat#3647-TK) (human) (UniProt P46531); assay: ECL (MSD multi-spot), Fab […]; blank 162
[25] = biological target: rHuman Erythropoietin R/Fc Chimera, CF (R&D Systems Cat#963-ER) (human) (UniProt P19235); assay: ECL (MSD multi-spot), Fab […]; blank 162
[26] = biological target: rHuman CD44/Fc Chimera, CF (R&D Systems Cat#3660-CD) (human) (UniProt P16070); assay: ECL (MSD multi-spot), Fab […]; blank 162
[27] = biological target: rHuman HGF R/c-MET/Fc Chimera, CF (R&D Systems Cat#358-MT/CF) (human) (UniProt P08581); assay: ECL (MSD multi-spot), Fab […]; blank 162
[28] = biological target: rHuman EGF R/Fc Chimera, CF (R&D Systems Cat#344-ER) (human) (UniProt P00533); assay: ECL (MSD multi-spot), Fab […]; blank 162

Chain of rHuman Erythropoietin R/Fc Chimera, CF (R&D Systems Cat#963-ER) (human) (P19235 25-250, change not shown): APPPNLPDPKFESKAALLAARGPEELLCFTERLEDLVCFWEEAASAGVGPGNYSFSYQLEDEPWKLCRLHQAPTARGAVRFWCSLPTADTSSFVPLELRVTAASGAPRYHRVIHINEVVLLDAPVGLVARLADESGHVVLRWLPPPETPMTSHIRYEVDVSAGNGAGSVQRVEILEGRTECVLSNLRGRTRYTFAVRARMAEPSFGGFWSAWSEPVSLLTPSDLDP

Question: For “Fab VH4-34_IGHD7-27*01_IGHJ4*01 & V4-6_IGLJ4*01”, which ECL signal [1] is on record?
Answer: 1230 ECL signal

Question: And the ECL signal [2]?
Answer: 1040 ECL signal

Question: What about the ECL signal [3] of the same substance?
Answer: 1160 ECL signal

Question: And the ECL signal [4]?
Answer: 1210 ECL signal

Question: And the ECL signal [5]?
Answer: 1240 ECL signal

Question: What about the ECL signal [6] of the same substance?
Answer: 1210 ECL signal

Question: And the ECL signal [7]?
Answer: 844 ECL signal

Question: What about the ECL signal [8] of the same substance?
Answer: 891 ECL signal

Question: And the ECL signal [9]?
Answer: 709 ECL signal

Question: What about the ECL signal [10] of the same substance?
Answer: 780 ECL signal

Question: And the ECL signal [11]?
Answer: 817 ECL signal

Question: And the ECL signal [12]?
Answer: 693 ECL signal

Question: What about the ECL signal [13] of the same substance?
Answer: 998 ECL signal

Question: What about the ECL signal [14] of the same substance?
Answer: 1000 ECL signal

Question: And the ECL signal [15]?
Answer: 900

Question: And the ECL signal [16]?
Answer: 871

Question: What about the ECL signal [17] of the same substance?
Answer: 935

Question: And the ECL signal [18]?
Answer: 912

Question: What about the ECL signal [19] of the same substance?
Answer: 907

Question: What about the ECL signal [20] of the same substance?
Answer: 914

Question: And the ECL signal [21]?
Answer: 866 ECL signal

Question: And the ECL signal [22]?
Answer: 646 ECL signal

Question: And the ECL signal [23]?
Answer: 421 ECL signal

Question: What about the ECL signal [24] of the same substance?
Answer: 649 ECL signal

Question: What about the ECL signal [25] of the same substance?
Answer: 494 ECL signal

Question: What about the ECL signal [26] of the same substance?
Answer: 522 ECL signal

Question: What about the ECL signal [27] of the same substance?
Answer: 607 ECL signal

Question: What about the ECL signal [28] of the same substance?
Answer: 528 ECL signal
